Measured values taken from paper PMC6170424.
Blank lines part the entries; values can stand above or below the substance they belong to.

Assays:
[1] = biological target: Ef-SOD1b (Euplotes focardii Cu,Zn superoxide dismutase 1b) (Euplotes focardii); assay: SEC-MALS; 200 µl of protein (1 mg/ml) on Superose12 10/300 GL; 50 mM sodium phosphate buffer, NaCl 150 mM, pH 7.5
[2] = biological target: Ef-SOD2^Δ (Euplotes focardii Mn superoxide dismutase without its mitochondrial signal peptide) (Euplotes focardii); assay: as above
[3] = biological target: Ef-SOD1a^Δ (Euplotes focardii Cu,Zn superoxide dismutase 1a without its signal peptide) (Euplotes focardii); assay: SEC; comparison of the SEC chromatographic profiles of Ef-SOD1a and Ef-SOD1b; data not shown

stoichiometry N [1]: 2
Substance: Ef-SOD1b (Euplotes focardii Cu,Zn superoxide dismutase 1b) (enzyme)

stoichiometry N [2]: 4
Substance: Ef-SOD2^Δ (Euplotes focardii Mn superoxide dismutase without its mitochondrial signal peptide) (enzyme)

stoichiometry N [3]: 2
Substance: Ef-SOD1a^Δ (Euplotes focardii Cu,Zn superoxide dismutase 1a without its signal peptide) (enzyme)
